According to paper PMC2139951:

Columns and labels:
[1] = target: Ran (recombinant, GTP form) (UniProt P62826)
[2] = target: Ran (recombinant, GTP form) (UniProt P62826); assay: inhibition of GAP-induced GTP hydrolysis on Ran

“recombinant Xenopus RanBP7 with COOH-terminal his-tag (natural protein)” was tested, and the offrate [1] was 2 h and the Kd [2] was 25 nM.

For “recombinant importin-β (from UniProt Q14974 1-876) (natural protein; other documents disagree on this pair)”, the Kd [2] was 0.8 nM.
